The target in assay [1] is T1, CD138 expressed on the cell surface (OPM-2, MOLP-8 cells) (human, UniProt P18827 23-310).
T1 sequence (looked up): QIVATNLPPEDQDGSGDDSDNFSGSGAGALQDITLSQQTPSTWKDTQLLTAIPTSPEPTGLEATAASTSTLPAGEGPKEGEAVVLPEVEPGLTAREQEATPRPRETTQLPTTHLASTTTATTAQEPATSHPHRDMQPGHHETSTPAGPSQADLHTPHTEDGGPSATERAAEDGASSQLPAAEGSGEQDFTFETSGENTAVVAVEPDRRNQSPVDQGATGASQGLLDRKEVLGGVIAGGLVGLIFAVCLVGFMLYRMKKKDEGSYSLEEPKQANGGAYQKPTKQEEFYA
The assay can be described thus: cell-based or functional assay.

Assay [2] deals with T1, CD138 expressed on the cell surface …. Nature of the assay: FACS on CD138+ OPM-2 cells, fluorescence-labeled secondary antibody, mean fluorescence against concentration. The source says:
The mean fluorescence measured in these experiments was plotted against the antibody concentration.
In FIG. 6, the mean fluorescences as measure for the amount of cell bound antibody is plotted against different antibody or conjugate concentrations.

The target of assay [3] is T2, Soluble CD138 antigen from U-266 cell culture supernatant, biotinylated (human, UniProt P18827 23-245, limits assumed, biotinylated on primary amino groups with Sulfo-NHS-LC-Biotin).
T2 construct: This is the soluble form in the supernatant of the human MM cell line U-266; also called bCD138; biotinylated CD138
T2 sequence (looked up): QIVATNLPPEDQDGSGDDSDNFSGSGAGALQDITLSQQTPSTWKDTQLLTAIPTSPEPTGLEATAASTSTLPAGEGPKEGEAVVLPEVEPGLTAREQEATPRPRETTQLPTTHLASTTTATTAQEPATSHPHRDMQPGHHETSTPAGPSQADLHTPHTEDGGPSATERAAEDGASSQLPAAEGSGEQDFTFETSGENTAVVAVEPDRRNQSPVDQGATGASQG
The assay can be described thus: SPR (BIACORE C), biotinylated soluble CD138 on streptavidin chip, conjugate as analyte at 3.13-100 nM. As for the experimental part:
(§1) The unbound biotinylation reagent was removed using protein desalting columns. Immobilization of bCD138 The sensorchip (SENSOR CHIP SA, BIACORE AB) used in the BIACORE assay is designed to bind biotinylated molecules for interaction analysis in BIACORE systems. The surface consists of a carboxymethylated dextran matrix pre-immobilized with streptavidin and ready for high-affinity capture of biotinylated ligands. Immobilization of bCD138 was performed on SENSOR CHIP SA using a flow rate of 10 μL/min by manual injection. The chip surface was conditioned with three consecutive 1-minute injections of 1 M NaCl in 50 mM NaOH.
(§2) The software of BIACORE C uses pre-defined masks, so called “Wizards” for different experiments where only certain settings can be changed. As the BIACORE C was originally developed to measure concentrations, there is no wizard designed to carry out affinity measurements. […] With this wizard, two flow cells were measured and the dissociation phase was set to 90 s by performing the “Regeneration 1” with BIACORE running buffer. […] The dissociation equilibrium constants were determined by calculating the rate constants ka and kd. Afterwards, the KD-values of the analytes were calculated by the quotient of kd and ka with the BIAevaluation software.

The target of assay [4] is T2, Soluble CD138 antigen from U-266 cell …. The assay can be described thus: SPR (BIACORE C), mean of three independent experiments, biotinylated soluble CD138 on streptavidin chip. How it is done: as §1, §2

Where “and” joins values, the source holds several entries; their conditions need not be identical. Equal values may be shown once.

B1: nBT062-SPDB-DM4 (antibody, human IgG4, kappa, V domains shown)
VH: QVQLQQSGSELMMPGASVKISCKATGYTFSNYWIEWVKQRPGHGLEWIGEILPGTGRTIYNEKFKGKATFTADISSNTVQMQLSSLTSEDSAVYYCARRDYYGNFYYAMDYWGQGTSVTVSS
VL: DIQMTQSTSSLSASLGDRVTISCSASQGINNYLNWYQQKPDGTVELLIYYTSTLQSGVPSRFSGSGSGTDYSLTISNLEPEDIGTYYCQQYSKLPRTFGGGTKLEIKR
modifications: maytansinoid DM4 attached via SPDB (disulfide) linker; attachment residues and chain not stated
On to B1, for which the “IC50 (read off the curve); surviving fraction of MOLP-8 cells (WST viability assay, 5 days), curve 'w/o blocking'” value in assay [1] was ~0.08 nM.

B2: nBT062-SPP-DM1 (antibody, human IgG4, kappa, V domains shown)
VH: B1 VH
VL: B1 VL
modifications: maytansinoid DM1 attached via SPP (disulfide) linker; attachment residues and chain not stated; average of 3.5 DM1 per antibody stated for nBT062-DM1
On to B2, for which the “EC50 (read off the curve)” value in assay [2] is ~1 nM.

B3: nBT062 (antibody, human IgG4, kappa, V domains shown)
VH: B1 VH
VL: B1 VL
notes: also called cB-B4; chimeric B-B4
For the molecule B3, in assay [2], the “EC50 (read off the curve)” value is ~1 nM.

B4: B-B4-SPP-DM1 (antibody, V domains shown)
VH: B1 VH
VL: DIQMTQSTSSLSASLGDRVTISCSASQGINNYLNWYQQKPDGTVELLIYYTSTLQSGVPSRFSGSGSGTDYSLTISNLEPEDIGTYYCQQYSKLPRTFGGGTKLEIK
modifications: maytansinoid DM1 attached via SPP (disulfide) linker; attachment residues and chain not stated
notes: the variable domain limits are inferred as for B-B4
B4: the dissociation constant Kd in assay [3] was 2.6 nM and 2.7 nM; in assay [4] it was 2.6 nM.

B5: nBT062-SMCC-DM1 (antibody, human IgG4, kappa, V domains shown)
VH: B1 VH
VL: B1 VL
modifications: maytansinoid DM1 attached via SMCC (non-cleavable) linker; attachment residues and chain not stated; average of 3.5 DM1 per antibody stated for nBT062-DM1
For B5, in assay [2], the “EC50 (read off the curve)” value is ~1 nM.
